Results reported in patent US20250296958A1, “GL[…] E[…]” (THE ADMINISTRATORS OF THE TULANE EDUCATIONAL FUND, priority 2022, published 2025).

Experiments:
delta opioid receptor [1] = target: delta opioid receptor (UniProt P41143); experiment: PDSP receptor binding, selectivity against MOR
delta opioid receptor [2] = target: delta opioid receptor (UniProt P41143); experiment: PDSP receptor binding; log of Ki in M
delta opioid receptor [3] = target: delta opioid receptor (UniProt P41143); experiment: PDSP receptor binding

Substance: ZH853 (peptide)
- del/mu (ratio of Ki at DOR to Ki at MOR) (delta opioid receptor [1]): 291
- Log Ki (delta opioid receptor [2]): -6.57
- Ki (delta opioid receptor [3]): 271 nM
